From patent publication US20100311648A1 (AstraZeneca / MedImmune, published 2010)
Positions of bridges follow the written chain, without caps; N, C: chain ends. Non-standard residues stand in square brackets, D forms with d. dPhe(2-CF3) = N[C@H](Cc1ccccc1C(F)(F)F)C(=O)O; dPhe(3,4-F2) = N[C@H](Cc1ccc(F)c(F)c1)C(=O)O; dPhe(3,5-F2) = N[C@H](Cc1cc(F)cc(F)c1)C(=O)O; dPhe(4-CN) = N#Cc1ccc(C[C@@H](N)C(=O)O)cc1; dPhe(3-Me) = Cc1cccc(C[C@@H](N)C(=O)O)c1; dPhe(2-Cl) = N[C@H](Cc1ccccc1Cl)C(=O)O; dPhe(2-Me) = Cc1ccccc1C[C@@H](N)C(=O)O; dPhe(4-F) = N[C@H](Cc1ccc(F)cc1)C(=O)O; dPhe(2-F) = N[C@H](Cc1ccccc1F)C(=O)O; Orn = NCCC[C@H](N)C(=O)O

B1: Ac-Arg-cyclo(Orn-Asn-D-Phe(3-Me)-Arg-Trp-Glu)-NH2 (peptide)
peptide: Ac-R[Orn]N[dPhe(3-Me)]RWE-NH2
modifications: lactam 2-7
notes: also called No. 72
B2: Ac-Arg-cyclo(Glu-Gln-D-Phe(2-Me)-Arg-Trp-Orn)-NH2 (peptide)
peptide: Ac-REQ[dPhe(2-Me)]RW[Orn]-NH2
modifications: lactam 2-7
notes: also called No. 110
B3: Ac-Arg-cyclo(Orn-Asn-D-Phe(2-Cl)-Arg-Trp-Glu)-NH2 (peptide)
peptide: Ac-R[Orn]N[dPhe(2-Cl)]RWE-NH2
modifications: lactam 2-7
B4: Ac-Arg-cyclo(Orn-Asn-D-Phe(4-CN)-Arg-Trp-Glu)-NH2 (peptide)
peptide: Ac-R[Orn]N[dPhe(4-CN)]RWE-NH2
modifications: lactam 2-7
notes: also called No. 91
B5: Ac-Arg-cyclo(Orn-Asn-D-Phe(2-CF3)-Arg-Trp-Glu)-NH2 (peptide)
peptide: Ac-R[Orn]N[dPhe(2-CF3)]RWE-NH2
modifications: lactam 2-7
B6: Ac-Arg-cyclo(Orn-Gln-D-Phe(4-CN)-Arg-Trp-Glu)-NH2 (peptide)
peptide: Ac-R[Orn]Q[dPhe(4-CN)]RWE-NH2
modifications: lactam 2-7
notes: also called No. 94
B7: Ac-Arg-cyclo(Orn-Pro-D-Phe(2-F)-Arg-Trp-Glu)-NH2 (peptide)
peptide: Ac-R[Orn]P[dPhe(2-F)]RWE-NH2
modifications: lactam 2-7
SMILES: CC(=O)N[C@@H](CCCNC(=N)N)C(=O)N[C@H]1CCCNC(=O)CC[C@@H](C(N)=O)NC(=O)[C@H](Cc2c[nH]c3ccccc23)NC(=O)[C@H](CCCNC(=N)N)NC(=O)[C@@H](Cc2ccccc2F)NC(=O)[C@@H]2CCCN2C1=O
B8: Ac-Arg-cyclo(Glu-Gln-D-Phe(4-F)-Arg-Trp-Orn)-NH2 (peptide)
peptide: Ac-REQ[dPhe(4-F)]RW[Orn]-NH2
modifications: lactam 2-7
notes: also called No. 92
B9: Ac-D-Arg-cyclo(Asp-Gln-D-Phe(4-F)-Arg-Trp-Lys)-NH2 (peptide)
peptide: XDQXRWK
modifications: N-terminal Ac; D-Arg 1; D-Phe(4-F) 4; lactam Asp 2-Lys 7; C-terminal NH2
notes: also called No. 83
B10: Ac-Arg-cyclo(Orn-Asn-D-Phe(3,5-diF)-Arg-Trp-Glu)-NH2 (peptide)
peptide: Ac-R[Orn]N[dPhe(3,5-F2)]RWE-NH2
modifications: lactam 2-7
notes: also called No. 77
B11: Ac-Arg-cyclo(Asp-Pro-D-Phe(2-F)-Arg-Trp-Lys)-NH2 (peptide)
peptide: RDPXRWK
modifications: N-terminal Ac; D-Phe(2-F) 4; lactam Asp 2-Lys 7; C-terminal NH2
B12: Ac-Arg-cyclo(Asp-Pro-D-Phe(4-F)-Arg-Trp-Lys)-NH2 (peptide)
peptide: RDPXRWK
modifications: N-terminal Ac; D-Phe(4-F) 4; lactam Asp 2-Lys 7; C-terminal NH2
notes: also called No. 103
B13: Ac-Arg-cyclo(Asp-Asn-D-Phe(4-CN)-Arg-Trp-Lys)-NH2 (peptide)
peptide: Ac-RDN[dPhe(4-CN)]RWK-NH2
modifications: lactam 2-7
notes: also called No. 89
B14: Ac-Arg-cyclo(Asp-Gln-D-Phe(4-CN)-Arg-Trp-Lys)-NH2 (peptide)
peptide: RDQXRWK
modifications: N-terminal Ac; D-Phe(4-CN) 4; lactam Asp 2-Lys 7; C-terminal NH2
notes: also called No. 90
B15: Ac-D-Arg-cyclo(Asp-Gln-D-Phe(3,4-diF)-Arg-Trp-Lys)-NH2 (peptide)
peptide: XDQXRWK
modifications: N-terminal Ac; D-Arg 1; D-Phe(3,4-diF) 4; lactam Asp 2-Lys 7; C-terminal NH2
notes: also called No. 78
B16: Ac-D-Arg-cyclo(Asp-Gln-D-Phe(2-F)-Arg-Trp-Lys)-NH2 (peptide)
peptide: XDQXRWK
modifications: N-terminal Ac; D-Arg 1; D-Phe(2-F) 4; lactam Asp 2-Lys 7; C-terminal NH2
notes: also called No. 82
B17: Ac-D-Arg-cyclo(Asp-Gln-D-Phe(4-CN)-Arg-Trp-Lys)-NH2 (peptide)
peptide: XDQXRWK
modifications: N-terminal Ac; D-Arg 1; D-Phe(4-CN) 4; lactam Asp 2-Lys 7; C-terminal NH2
notes: also called No. 81
B18: Ac-Arg-cyclo(Lys-Gln-D-Phe(4-CN)-Arg-Trp-Asp)-NH2 (peptide)
peptide: Ac-RKQ[dPhe(4-CN)]RWD-NH2
modifications: lactam 2-7
SMILES: CC(=O)N[C@@H](CCCNC(=N)N)C(=O)N[C@H]1CCCCNC(=O)C[C@@H](C(N)=O)NC(=O)[C@H](Cc2c[nH]c3ccccc23)NC(=O)[C@H](CCCNC(=N)N)NC(=O)[C@@H](Cc2ccc(C#N)cc2)NC(=O)[C@H](CCC(N)=O)NC1=O
notes: also called No. 93
B19: Ac-Arg-cyclo(Orn-Asn-D-Phe(3,4-diF)-Arg-Trp-Glu)-NH2 (peptide)
peptide: Ac-R[Orn]N[dPhe(3,4-F2)]RWE-NH2
modifications: lactam 2-7
notes: also called No. 75
B20: Ac-Arg-cyclo(Glu-Gln-D-Phe(2-Cl)-Arg-Trp-Orn)-NH2 (peptide)
peptide: Ac-REQ[dPhe(2-Cl)]RW[Orn]-NH2
modifications: lactam 2-7
notes: also called No. 34
B21: Ac-Arg-cyclo(Glu-Ala-D-Phe(4-CN)-Arg-Trp-Orn)-NH2 (peptide)
peptide: Ac-REA[dPhe(4-CN)]RW[Orn]-NH2
modifications: lactam 2-7
SMILES: CC(=O)N[C@@H](CCCNC(=N)N)C(=O)N[C@H]1CCC(=O)NCCC[C@@H](C(N)=O)NC(=O)[C@H](Cc2c[nH]c3ccccc23)NC(=O)[C@H](CCCNC(=N)N)NC(=O)[C@@H](Cc2ccc(C#N)cc2)NC(=O)[C@H](C)NC1=O
notes: also called No. 41
B22: Ac-Arg-cyclo(Glu-Ser-D-Phe(2-F)-Arg-Trp-Orn)-NH2 (peptide)
peptide: Ac-RES[dPhe(2-F)]RW[Orn]-NH2
modifications: lactam 2-7
notes: also called No. 58

Experiments:
[1] = biological target: T1, human melanocortin-4 receptor (human, UniProt P32245 1-332); test: cell-based or functional assay
T1 sequence (P32245 whole entry): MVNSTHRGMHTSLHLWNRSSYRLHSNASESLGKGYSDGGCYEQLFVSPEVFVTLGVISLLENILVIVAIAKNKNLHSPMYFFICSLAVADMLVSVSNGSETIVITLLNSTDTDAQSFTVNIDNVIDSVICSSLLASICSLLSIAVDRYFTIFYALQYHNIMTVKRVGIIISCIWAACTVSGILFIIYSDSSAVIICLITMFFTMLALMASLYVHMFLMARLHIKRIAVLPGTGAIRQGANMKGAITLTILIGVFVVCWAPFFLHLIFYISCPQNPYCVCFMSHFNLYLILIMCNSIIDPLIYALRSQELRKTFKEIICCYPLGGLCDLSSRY

[2] = biological target: T1, human melanocortin-4 receptor; test: [I125]-NDP-α-MSH competition, hMC4-R HEK-293 membranes
Description: (§1) A competitive inhibition binding assay was performed for exemplified peptides according to the invention using membrane homogenates prepared from HEK-293 cells that express recombinant hMC4-R, hMC3-R, or hMC5-R, and from B-16 mouse melanoma cells (containing endogenous MC1-R). In some instances, HEK-293 cells that express recombinant hMC1-R were employed. Assays were performed in 96 well GF/B Millipore multiscreen filtration plates (MAFB NOB10) pre-coated with 0.5% bovine serum albumin (Fraction V). […] After incubation for 60 minutes at 37° C., the assay mixture was filtered and the membranes washed three times with ice-cold buffer. Filters were dried and counted in a gamma counter for bound radioactivity. […] Each assay was conducted in triplicate and the actual mean values are described, with results less than 0% reported as 0%. Ki values for test peptides of the present invention were determined using Graph-Pad Prism® curve-fitting software.

[3] = biological target: T2, melanocortin-1 receptor (mouse (B-16 melanoma cells); in some …, UniProt Q01727 1-315); test: [I125]-NDP-α-MSH competition, MC1-R membranes
T2 construct: whole, on cells; membrane homogenates; also called MC1-R; mouse B16 MC1-R
T2 sequence (Q01727 whole entry): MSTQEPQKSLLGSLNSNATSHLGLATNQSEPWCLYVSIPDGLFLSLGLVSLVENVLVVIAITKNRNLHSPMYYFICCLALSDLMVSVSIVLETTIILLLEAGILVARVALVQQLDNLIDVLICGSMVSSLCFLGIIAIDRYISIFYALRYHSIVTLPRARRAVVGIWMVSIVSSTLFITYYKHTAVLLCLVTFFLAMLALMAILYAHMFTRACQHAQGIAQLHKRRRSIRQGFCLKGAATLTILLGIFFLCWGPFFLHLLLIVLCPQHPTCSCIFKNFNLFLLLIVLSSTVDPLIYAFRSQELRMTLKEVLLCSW
Description: as §1

Row | Binder | EC50, cAMP, 0.1 ng/mL Doxycycline [1] | EC50, cAMP, 10 ng/mL Doxycycline [1] | Intrinsic Activity, cAMP, 0.1 ng/mL Doxycycline [1] | Ki [2] | Intrinsic Activity, cAMP, 10 ng/mL Doxycycline [1] | Ki [3]
1 | B1 | 3 nM | 0.35 nM | 11% | 4 nM |  | 
2 | B2 | 0.6 nM | 0.06 nM | 84% |  | 105% | 105 nM
3 | B3 | 0.72 nM | 0.065 nM |  | 7 nM | 100% | 
4 | B4 | 1 nM | 0.265 nM | 18% | 4 nM | 96% | 
5 | B5 | 1 nM | 0.18 nM | 50% | 5 nM | 112% | 
6 | B6 | 0.24 nM | 0.09 nM | 32% | 0.9 nM | 92% | 
7 | B7 | 3 nM | 0.15 nM | 35% | 7 nM | 94% | 
8 | B8 | 0.1 nM | 0.04 nM | 81% | 2 nM | 89% | 
9 | B9 | 0.75 nM | 0.075 nM | 78% | 6 nM | 94% | 
10 | B10 | 3 nM | 0.155 nM | 34% | 8 nM | 80% | 
11 | B11 | 191 nM | 10 nM | 16% | 78 nM | 100% | 
12 | B12 | 1 nM | 0.13 nM | 32% | 4 nM | 100% | 
13 | B13 |  | 17 nM | 6% | 48 nM | 87% | 
14 | B14 | 4 nM | 0.283 nM | 31% | 5 nM | 96% | 
15 | B15 | 2 nM | 0.2 nM | 48% | 8 nM | 89% | 
16 | B16 | 2 nM | 0.095 nM | 79% | 10 nM | 95% | 
17 | B17 | 4 nM | 0.45 nM | 23% | 13 nM | 85% | 
18 | B18 | 0.3 nM | 0.17 nM | 44% | 1 nM | 97% | 
19 | B19 | 0.65 nM | 0.125 nM | 43% | 3 nM |  | 
20 | B20 | 1 nM | 0.137 nM | 79% | 7 nM | 97% | 128 nM
21 | B21 |  | 0.8 nM | 5% | 3 nM | 84% | 4300 nM
22 | B22 | 5 nM | 0.25 nM | 67% |  | 100% | 138 nM
